Measurements: paper PMC2680549

Target: N-terminal domain of Bag2 (Bag2-NTD)
Assay: SEC

Sequence of N-terminal domain of Bag2 (Bag2-NTD) (domain or fragment) (Q91YN9 104-194): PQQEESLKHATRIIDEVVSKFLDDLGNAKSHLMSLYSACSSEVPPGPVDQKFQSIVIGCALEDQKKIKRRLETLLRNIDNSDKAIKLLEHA

- stoichiometry N: 2
Substance: N-terminal domain of Bag2 (Bag2-NTD) (domain or fragment)
